Results: patent US20240182561A1 (Regeneron, published 2024)
Like-named read-outs stand apart in the source and are kept apart here.

T1: mouse CACNG1 expressed on cells (mouse, UniProt O70578 1-223)
T1 sequence (looked up): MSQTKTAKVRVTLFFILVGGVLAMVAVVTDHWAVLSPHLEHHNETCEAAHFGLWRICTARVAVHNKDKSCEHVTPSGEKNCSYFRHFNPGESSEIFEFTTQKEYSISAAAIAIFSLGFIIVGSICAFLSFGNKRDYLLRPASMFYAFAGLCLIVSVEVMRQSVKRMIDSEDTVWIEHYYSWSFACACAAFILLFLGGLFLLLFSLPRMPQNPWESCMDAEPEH


How the values were obtained:
[1] = molecular target: T2, human CACNG1 expressed on cells (human, UniProt Q06432 1-222); assay: cell-based or functional assay
T2 sequence (Q06432 whole entry): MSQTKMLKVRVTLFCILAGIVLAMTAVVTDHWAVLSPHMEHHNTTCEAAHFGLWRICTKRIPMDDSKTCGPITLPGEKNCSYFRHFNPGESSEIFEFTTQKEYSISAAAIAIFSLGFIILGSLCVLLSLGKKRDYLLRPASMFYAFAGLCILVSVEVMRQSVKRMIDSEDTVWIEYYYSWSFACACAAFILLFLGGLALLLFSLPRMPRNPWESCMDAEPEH

[2] = molecular target: T2, human CACNG1 expressed on cells; assay: cell-based or functional assay; remark: listed apart in the source
[3] = molecular target: T2, human CACNG1 expressed on cells; assay: imaging cell binding, HEK293/hCACNG1
Protocol: (§1) HuSKM were seeded in collagen-coated 96-well plates (Greiner Bio-One #655956) at 8,500 cells/well and grown for 24 hours. The growth media was changed to MyoTonic Differentiation Media (Cook Myosite Cat #MD-5555) and replaced every 2 days. Myotubes were assayed after 6 days of differentiation. C2C12 mouse myoblasts were maintained in DMEM with 10% FBS and 1% penicillin-streptomycin supplement and grown in a 37° C. incubator with 5% CO₂. C2C12 cells were seeded in collagen-coated 96-well plates (Greiner Bio-One #655956) at 10,000 cells/well for the cell binding assay and 5,000 cells/well for the cell killing assay. After 24 hours, growth media was replaced with differentiation media (DMEM with 2% horse serum) and placed in a 37° C. incubator with 7.5% CO₂. C2C12 myotubes were assayed after 3 days of differentiation. HEK293/hCACNG1, HEK293/mCACNG1, and HEK293 cells were seeded at 10,000 cells (cell binding assay) or 2,000 (cell killing assay) per well in 96-well black collagen coated plates (Greiner Bio-One, cat #655956) in complete growth media and grown overnight at 37° C. in 5% CO₂.
(§2) Relative binding of anti-CACNG1 antibodies was assessed across the entire panel of cell lines via imaging analysis. […] After one wash with antibody dilution buffer, samples were fixed in CytoFix (BD Biosciences, Cat #554655) diluted 1:1 in PBS and supplemented with a 1:2000 dilution of Hoechst 33342 (Thermo, Cat #H1399) for 20 minutes on ice. Images were acquired with a 10× objective on the Opera Phenix (Perkin Elmer) and relative fluorescence units (RFU) was determined using Harmony software (Perkin Elmer).

[4] = molecular target: T2, human CACNG1 expressed on cells; assay: imaging cell binding, HuSKM myotubes
Protocol: as §1, §2

[5] = molecular target: T2, human CACNG1 expressed on cells; assay: cell-based or functional assay; remark: listed apart in the source
[6] = molecular target: T1, mouse CACNG1 expressed on cells; assay: cell-based or functional assay
[7] = molecular target: T2, human CACNG1 expressed on cells; assay: cell-based or functional assay; remark: listed apart in the source
[8] = molecular target: T1, mouse CACNG1 expressed on cells; assay: imaging cell binding, C2C12 mouse myotubes
Protocol: as §1, §2

[9] = molecular target: T1, mouse CACNG1 expressed on cells; assay: imaging cell binding, HEK293/mCACNG1
Protocol: as §1, §2

[10] = molecular target: T2, human CACNG1 expressed on cells; assay: cell-based or functional assay; remark: listed apart in the source
[11] = molecular target: T2, human CACNG1 expressed on cells; assay: cell-based or functional assay; remark: listed apart in the source
[12] = molecular target: T2, human CACNG1 expressed on cells; assay: cell-based or functional assay; remark: listed apart in the source
[13] = molecular target: T2, human CACNG1 expressed on cells; assay: cell-based or functional assay; remark: listed apart in the source
[14] = molecular target: T2, human CACNG1 expressed on cells; assay: cell-based or functional assay; remark: listed apart in the source
[15] = molecular target: T2, human CACNG1 expressed on cells; assay: cell-based or functional assay; remark: listed apart in the source
[16] = molecular target: T3, nanodisc embedded human CACNG1 expressed with a C-terminal PADRE-Flag-His tag (human, UniProt Q06432 1-222); assay: SPR, anti-His-captured nanodisc, 25 C
T3 construct: Captured on an anti-His Biacore surface; also called human CACNG1 nanodisc; CACNG1 nanodisc; not shown: C-terminal tag
T3 sequence (Q06432 whole entry): as above
Protocol: Equilibrium dissociation constants (KD values) for nanodisc embedded human CACNG1 expressed with a C-terminal […] tag (human CACNG1 nanodisc; concentration 0.82 mg/ml) binding to purified anti-CACNG1 antibodies were determined using a real-time surface plasmon resonance biosensor technology with a Biacore T200 instrument. The CM5 Biacore sensor surface was derivatized by amine coupling with a monoclonal mouse anti-His antibody (Cytiva; Marlborough, MA). All Biacore binding studies were performed in a buffer composed of 0.01M HEPES, 0.15M NaCl, 1 mM CaCl₂, 0.5 mM MgCl₂, pH 7.4 (HBS-N++ running buffer). Different concentrations of anti-CACNG1 antibodies (ranging from 300 nM to 12 nM in 5-fold serial dilutions) prepared in HBS-N++ running buffer were injected over the captured human CACNG1 nanodisc at a flow rate of 30 μL/minute. Antibody association was monitored for 2 minutes while dissociation was monitored in HBS-N++ running buffer for 5 minutes. At the end of each cycle, the human CACNG1 nanodisc capture surface was regenerated using three 10 second injections of 10 mM Gly pH1.5. All binding kinetics experiments were performed at 25° C.
The specific SPR-Biacore sensorgrams were obtained by a double referencing procedure. The double referencing was performed by first subtracting the signal of each injection over a reference surface (anti-His) from the signal over the experimental surface (anti-His captured human CACNG1 nanodisc) thereby removing contributions from refractive index changes. In addition, running buffer injections were performed to allow subtraction of the signal changes resulting from the dissociation of captured antibodies from the coupled anti-His surface. Kinetic association (kₐ) and dissociation ([…]) rate constants were determined by fitting the real-time sensorgrams to a 1:1 binding model using Scrubber v2.0c curve fitting software. Binding dissociation equilibrium constants (KD) and dissociative half-lives (t %) were calculated from the kinetic rate constants as: […]

[17] = molecular target: T2, human CACNG1 expressed on cells; assay: cell-based or functional assay; remark: listed apart in the source
[18] = molecular target: T2, human CACNG1 expressed on cells; assay: imaging cell binding, HuSKM myotubes; remark: listed apart in the source
Protocol: as §1, §2

[19] = molecular target: T2, human CACNG1 expressed on cells; assay: imaging cell binding, HEK293/hCACNG1; remark: listed apart in the source
Protocol: as §1, §2

[20] = molecular target: T1, mouse CACNG1 expressed on cells; assay: imaging cell binding, C2C12 mouse myotubes; remark: listed apart in the source
Protocol: as §1, §2

[21] = molecular target: T2, human CACNG1 expressed on cells; assay: live myotubes (human myotubes per paragraph 866) incubated with antibody, detection with Alexa 647-conjugated F(ab')2 secondary antibody, Hoechst counterstain, fluorescence imaging; titration 100 to 0.02 nM and 0 nM

Binder	EC50 [4] [nM]	S/N [4] [fold]	% KILL, indirect cell killing, HEK293/mCACNG1 [6] [%]	EC50/IC50, indirect cell killing, HEK293/mCACNG1 [6] [nM]	% KILL, indirect cell killing, HEK293/hCACNG1 [7] [%]	% KILL, indirect cell killing, HuSKM [7] [%]	EC50/IC50, indirect cell killing, HEK293/hCACNG1 [7] [nM]	EC50/IC50, indirect cell killing, HuSKM [7] [nM]	Kd [16] [nM]	koff [16] [s⁻¹]	kon [16] [M⁻¹ s⁻¹]	mAb bound at 300 nM [16] [RU]	t1/2 [16] [min]	EC50/IC50, indirect cell killing, HuSKM [17] [nM]	other results
REGN5972 (antibody, V domains shown, also called H4H31265P2/REGN5972; CACNG1 hIgG1 antibody) VH: QVQLVESGGGVVQPGRSLRLSCTASGFTFRSYGMHWVRQAPGKGLEWVSVIWIDGNNIYYADSVKGRFTISRDNSKNTLYLQMDSLRAEDTAVYYCARRLAITSAAPFDYWGQGTLVTVSS VL: not shown	2.9	313	11	> 1	95.4	97.4	0.00139	0.585							EC50 of androgen receptor luciferase reporter activation (RLU) by the DHT conjugate REGN5972-M3004 in hCACNG1.AR.Luc LNCaP cells, 48 hours; concentration adjusted for DAR [1]: 6.49 nM; EC50 of androgen receptor luciferase reporter activation (RLU) by the DHT conjugate REGN5972-M3004 in hCACNG1.AR.Luc LNCaP cells, 24 hours; concentration adjusted for DAR [2]: 19 nM; EC50 [3]: 6.6 nM; S/N [3]: 172 fold; EC50 of androgen receptor luciferase reporter activation (RLU) by the DHT conjugate REGN5972-M3004 in hCACNG1.AR.Luc LNCaP cells, 72 hours; concentration adjusted for DAR [5]: 7.79 nM; % KILL, indirect cell killing, C2C12 [6]: 0%; EC50/IC50, indirect cell killing, C2C12 [6]: > 10 nM; S/N [8]: 1.6 fold; EC50 [9]: > 100 nM; S/N [9]: 5.3 fold
REGN14572 (antibody, human IgG1, kappa, N297Q) heavy: not shown light: DIQMTQSPSTLSASVGDRVTLTCRASQSISNKLAWYQQKPGKAPNLLIYKASNLESGVPSRFSGSGSGTEFTLTISSLQPDDFATYYCQQYNSYSWTFGQGTKVEIKRTVAAPSVFIFPPSDEQLKSGTASVVCLLNNFYPREAKVQWKVDNALQSGNSQESVTEQDSKDSTYSLSSTLTLSKADYEKHKVYACEVTHQGLSSPVTKSFNRGEC															EC50 of androgen receptor luciferase reporter activation (RLU) by the DHT conjugate REGN14572-M3004 in hCACNG1.AR.Luc LNCaP cells, 72 hours; concentration adjusted for DAR [10]: 10.3 nM; EC50 of androgen receptor luciferase reporter activation (RLU) by the DHT conjugate REGN14572-M3004 in hCACNG1.AR.Luc LNCaP cells, 24 hours; concentration adjusted for DAR [11]: 11.2 nM; EC50 of androgen receptor luciferase reporter activation (RLU) by the DHT conjugate REGN14572-M3004 in hCACNG1.AR.Luc LNCaP cells, 48 hours; concentration adjusted for DAR [12]: 11.9 nM
REGN14573-M3004 (antibody, human IgG1, lambda, N297Q, N297Q; DHT linker-payload M3004 conjugated, DAR about 4) heavy chain: not shown light chain: QSVLTQPPSVSAAPGQKVTISCSGSSSNIGNNYVSWYQQLPGTAPKLLIYDNNKRPSGIPDRFSGSKSGTSATLGITGLQTGDEADYYCGTWDLSLSFNWVFGGGTKLTVLGQPKAAPSVTLFPPSSEELQANKATLVCLISDFYPGAVTVAWKADSSPVKAGVETTTPSKQSNNKYAASSYLSLTPEQWKSHRSYSCQVTHEGSTVEKTVAPTECS															EC50 of androgen receptor luciferase reporter activation (RLU) by the DHT conjugate REGN14573-M3004 in hCACNG1.AR.Luc LNCaP cells, 48 hours; concentration adjusted for DAR [13]: 213 nM; EC50 of androgen receptor luciferase reporter activation (RLU) by the DHT conjugate REGN14573-M3004 in hCACNG1.AR.Luc LNCaP cells, 24 hours; concentration adjusted for DAR [14]: 214 nM; EC50 of androgen receptor luciferase reporter activation (RLU) by the DHT conjugate REGN14573-M3004 in hCACNG1.AR.Luc LNCaP cells, 72 hours; concentration adjusted for DAR [15]: 185 nM
REGN9908 (antibody, mouse IgG2b, V domains shown, mIgG2b) VH: EVQLLESGGGLAQPGGSLRLSCAASGFTFSSYAMSWVRQAPGKGLEWVSSVSGSGGTTYYAASVKGRFTVSRDNSKKTLYLQMNSLRAEDTAVYYCGKGGYCSSSGCRHYGMDVWGQGTTVTVSA VL: QSVLTQPPSASGTPGQRVAISCSGSNSNIGNNYLYWYQQIPGTTPKLLIYRNNQRPSGVPDRFSASKSGTSASLAISGLRSGDEADYYCAAWDDSLSGYVFGTGTKVTVLG	14.8	164							9.57	0.00402	419000	21	2.9	0.0859	
REGN9909 (antibody, mouse IgG2a, kappa, V domains shown, mIgG2a) VH: EVQLLESGGGLVQPGGSLRLSCAASGFTFNNYGMSWVRQGPGKGLEWVSSISGSGGTTFYADSVKGRFTISRDNSKNTLYLQMNSLRAEDTAVYYCGKGGYCSSSGCRHYGMDVWGQGTTVTVSS VL: QSVLTQPPSASGTPGQRVTISCSGSSSNIGNNYIYWYQRLPGTTPKLLIYRNNQRPSGVPDRFSGSKSGTSASLAISGLRSEDEADYYCAAWDDTLSGYVFGTGTKVTVLR	6.51	141	88.5	0.0612	95.2	99.5	0.00235	0.0183	4.15	0.00137	331000	22	8.4	0.00968	EC50 [18]: 14 nM; S/N [18]: 171 fold; EC50 [19]: 1.6 nM; S/N [19]: 5.4 fold; EC50 [20]: 8.3 nM; S/N [20]: 4.2 fold
REGN7854 (antibody, human IgG4 S228P, kappa, V domains shown, also called CACNG1 Ab) VH: QVQLVQSGAEVKKPGASVKVSCKASGYAFTTYGITWVRQAPGQGLEWMGWISAYNGNTNYAEKVQGRFTMTTDTSTNTAYMELRSLRSDDTAVYFCARKGHYGSGTYYNPFGFDFWGQGTMVTVSS VL: EIVLTQSPGTLSLSPGERATLSCRASQSVSSSYLAWYQQKPGQAPRLLIYGASSRATGIPDRFSGSGSGTDFTLTISRLEPEDFALYFCQQYYGSPWTFGQGTKVEIKR															binding result [21]: binds
